In data set [1] the target is SARS-CoV-2 nucleocapsid protein (SARS-CoV-2, UniProt P0DTC9 P0DTC9:1-419). Put plainly: SPR. The following applies: tags: AcroBiosystems C5227 / RayBiotech 230-01104.
Another data set concerns the target ACE2/ACEH (Homo sapiens, UniProt Q9BYF1 Q9BYF1:18-740). Kind of data set: SPR. The conditions noted are these: tags: Fc-tag, ACRO Biosystems AC2-H5257; chain copies: 2.
Data set [2] has as its target SARS-CoV-2 full-length S protein on lentiviral VLP (SARS-CoV-2, UniProt P0DTC2 P0DTC2:14-1273). Put plainly: cell_activity. The following applies: protein: virion, tags: GenTarget VLP001, GFP reporter VLP, chain copies: 3 (inferred).

Positions count from the first letter of the chain named.

B1: AYA2012004_L-M2 (structured_DNA)
DNA 1: TTTTTTAGGGAAGAGAAGGACAATGATTTTGGGCGGGTTGA
DNA 2: B1 DNA 1 with T1A, T2A, T3A, T4A, T5A
Take B1: the binding result (in data set [1]; with ACE2/ACEH) was “no binding” in each case. The activity in data set [2] was ~60 % inhibition.
Regarding TAGGGAAGAGAAGGACAATGATTTTGGGCGGGTTGA (ssDNA) [AYA2012004_L-M1], the binding result (in data set [1]; with ACE2/ACEH) was “no binding” each time. The activity in data set [2] was ~50 % inhibition.

B2: SB3L (AYA2012004_L) (ssDNA)
DNA: TAGGGAAGAGAAGGACAATGATTTTGGGCGGGTTGAGGTGGGGGAGGAGGAGGTAGTTAGAGTTGACTAGTACATGACCACTTGA
In the case of B2, the binding result (in data set [1]; in the data set with ACE2/ACEH) was “no binding” throughout. Besides, the activity in data set [2] (label: 5'-biotin, two hairpins (predicted)) was ~70 % inhibition.

These data come from patent US20240287527, “VIRAL PROTEIN […] […] AND METHODS OF USE IN DIAGNOSTICS, […] PURPOSES” (AYASS BIOSCIENCE LLC, published 2024).
